Experimental data as given in US20210087244A1.

Biological target: A-beta42 Monomer (human)
Experiment: SPR direct binding (MASS-1), hybridoma supernatant over immobilized antigen

Sequence of A-beta42 Monomer (human) (peptide, as listed by the source): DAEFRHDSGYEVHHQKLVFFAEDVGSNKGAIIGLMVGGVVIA

- response units (RU): 46 RU
B1: 301-12G11 (17) (antibody, V domains shown)
VH: QVQLQQPGAELVKPGASVKMSCKASGYSFTSYWINWVKQRPGQGLEWIGDVHPGRGVSTYNAKFKSKATLTLDTSSSTAYMQLSSLTSEDSAVYYCSRSHGNTYWFFDVWGAGTTVTVSS
VL: DVLMTQTPLSLPVSLGDQASISCRSSQSIVHSNGNTYLEWYLQKPGQSPKLLIYKVSNRFSGVPDRFSGSGSGTDFTLKISRVEAEDLGVYYCFQGSHVPFTFGSGTKLEIKR
